Measured values taken from US20110262445A1 (CEPHALON AUSTRALIA, published 2011).
Changes are numbered by the printed parent chain.

T1: human IL-12 (human, UniProt P29460 23-328; P29459 23-219)
T1 construct: Recombinant (Peprotech); FLAG-tagged IL-12 in the flow cytometry assays, biotinylated in the IL-12Rβ2 assay; also called hIL-12
T1 sequence 1: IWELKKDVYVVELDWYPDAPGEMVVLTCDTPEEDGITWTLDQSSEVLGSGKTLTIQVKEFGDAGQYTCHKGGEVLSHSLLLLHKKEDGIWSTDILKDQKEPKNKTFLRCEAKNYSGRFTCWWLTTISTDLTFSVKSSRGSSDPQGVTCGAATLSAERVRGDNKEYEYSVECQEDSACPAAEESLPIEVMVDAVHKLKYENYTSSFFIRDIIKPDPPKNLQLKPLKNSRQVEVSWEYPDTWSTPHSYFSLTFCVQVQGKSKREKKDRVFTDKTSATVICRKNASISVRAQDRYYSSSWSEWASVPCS
T1 sequence 2: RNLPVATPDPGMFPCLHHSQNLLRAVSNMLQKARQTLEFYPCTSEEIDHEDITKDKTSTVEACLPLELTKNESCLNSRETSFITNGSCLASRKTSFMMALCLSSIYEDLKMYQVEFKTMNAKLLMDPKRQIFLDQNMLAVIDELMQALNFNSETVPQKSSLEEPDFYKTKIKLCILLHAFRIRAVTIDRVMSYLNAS

T2: human IL-23 (human, UniProt P29460 23-328; Q9NPF7 20-189)
T2 construct: Recombinant (Ebioscience); HIS-tagged in flow cytometry, biotinylated in some assays; also called hIL-23; rhIL-23
T2 sequence 1: T1 sequence 1
T2 sequence 2: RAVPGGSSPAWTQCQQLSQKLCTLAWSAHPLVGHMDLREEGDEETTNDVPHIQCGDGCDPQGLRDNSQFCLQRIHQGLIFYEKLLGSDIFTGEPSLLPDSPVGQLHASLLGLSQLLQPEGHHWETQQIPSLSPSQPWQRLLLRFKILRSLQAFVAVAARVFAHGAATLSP

B1: Antibody 76 (antibody, human IgG1, kappa, V domains shown)
VH: EVQLVQSGAEVKKPGATVKISCKVSGYTFTDYYLHWVQQAPGKGLEWMGWIDPENGDTEYAPKFQGRVTITADTSTDTAYMELSSLRSEDTAVYYCNANKELRYFDVWGQGTMVTVSS
VL: EIVLTQSPATLSLSPGERATLSCRASQSISINLHWYQQKPGQAPRLLIYFASQSISGIPARFSGSGSGTDFTLTISSLEPEDFAVYYCQQSNSFPLTFGGGTKVEIKR
B2: Antibody 78 (antibody, human IgG1, kappa, V domains shown)
VH: B1 VH with E1Q, T17S, I20V, F29L, Q38R, I70M, A72E, N97A, A98T
VL: B1 VL
B3: Antibody 77 (antibody, human IgG1, kappa, V domains shown)
VH: QVQLVQSGAEVKKPGASVKVSCKASGYTFTDYYLHWVRQAPGQGLEWMGWIDPENGDTEYAPKFQGRVTMTTDTSTSTAYMELRSLRSDDTAVYYCNANKELRYFDVWGQGTMVTVSS
VL: B1 VL
B4: Antibody 81 (antibody, human IgG1, kappa, V domains shown)
VH: B1 VH with E1Q, T17S, I20V, F29L, Q38R, I70M, A72E, N97A, A98T
VL: B1 VL with L4M, L13V, D70E, E79Q, P80S
B5: Antibody 79 (antibody, human IgG1, kappa, V domains shown)
VH: B1 VH
VL: B1 VL with L4M, L13V, D70E, E79Q, P80S
B6: Antibody 207 (antibody, human IgG1, kappa, V domains shown)
VH: B3 VH with Y60S
VL: B1 VL with L4M, L13V, D70E, E79Q, P80S
notes: also called AW-F2 as IgG
B7: Antibody 184 (antibody, human IgG1, kappa, V domains shown)
VH: B3 VH with Y60H
VL: B1 VL with L4M, L13V, D70E, E79Q, P80S
notes: also called CP-A6 as IgG
B8: Antibody 54 (antibody, human IgG1, kappa, V domains shown)
VH: B1 VH with V24A, T30S, Q38R, R67K, A79G, M81L, N97A, M113L
VL: DIQMTQSPSSVSASVGDRVTITCRASQSISINLHWYQQKPGKAPKLLIYFASQSISGVPSRFSGSGSGTDFSLTINSLQPEDFATYYCQQSNSFPLTFGGGTKVEIKR
B9: Antibody 58 (antibody, human IgG1, kappa, V domains shown)
VH: B1 VH with V24A, T30S, Q38R, G42E, A79G, M81L, N97A, M113L
VL: B8 VL with Y49K
B10: Antibody 56 (antibody, human IgG1, kappa, V domains shown)
VH: B1 VH with V24A, T30S, Q38R, A79G, M81L, N97A, M113L
VL: B8 VL with Y49K
B11: Antibody 57 (antibody, human IgG1, kappa, V domains shown)
VH: B1 VH with V24A, T30S, Q38R, A40R, A79G, M81L, N97A, M113L
VL: B8 VL with Y49K
B12: Antibody 55 (antibody, human IgG1, kappa, V domains shown)
VH: B1 VH with V24A, T30S, Q38R, A40R, G42E, R67K, A79G, M81L, N97A, M113L
VL: B8 VL
B13: Antibody 59 (antibody, human IgG1, kappa, V domains shown)
VH: B1 VH with V24A, T30S, Q38R, R67K, A79G, M81L, N97A, M113L
VL: B8 VL with Y49K
B14: Antibody 37 (antibody, human IgG1, kappa, V domains shown)
VH: B1 VH with L34M, N99C
VL: B1 VL with F94W
notes: Superhumanized, backmutated heavy chain
B15: Antibody 34 (antibody, human IgG1, kappa, V domains shown)
VH: B1 VH with L34M, N99C
VL: B1 VL with L4M, L13V, D70E, E79Q, P80S, F94W
B16: Antibody 40 (antibody, human IgG1, kappa, V domains shown)
VH: B1 VH with L34M, N97A, A98T, N99C
VL: EIVLTQSPDFQSVTPKEKVTITCRASQSISINLHWYQQKPDQSPKLLIKFASQSISGVPSRFSGSGSGTDFTLTINSLEAEDAATYYCQQSNSWPLTFGGGTKVEIKR
notes: Superhumanized PMA204
B17: Antibody 35 (antibody, human IgG1, kappa, V domains shown)
VH: B1 VH with E1Q, T17S, I20V, F29L, L34M, Q38R, I70M, A72E, N99C
VL: B1 VL with L4M, L13V, D70E, E79Q, P80S, F94W
B18: Antibody 36 (antibody, human IgG1, kappa, V domains shown)
VH: B3 VH with L34M, N99C
VL: B1 VL with L4M, L13V, D70E, E79Q, P80S, F94W

What follows are binders tested against T1, human IL-12 (assay: ELISA, coated IL-12).
How it was run: (§1)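 Maxisorp plates were coated overnight at 4° C with cytokine at 1 μg/mL in carbonate buffer pH 9.6, then blocked for 1 hour at 25° C with 1% BSA in PBS. Antibody titrations were allowed to bind for 1 hour at 25° C and detected with goat anti-human IgG or anti-murine immunoglobulin HRP (1:2000, 1 hour), followed by TMB development stopped with 1M HCl. Binding is reported as absorbance. Readings were taken at 450 nm against a 620 nm reference.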

Row | Binder | binding result
1 | B1 | binds
2 | B2 | binds
3 | B3 | binds
4 | B4 | binds
5 | B5 | binds

The binders below were run against T1, human IL-12 (assay: SPR, IgG).
Experimental: (§2) CU-A6 was converted to Antibody 183, CP-A6 was converted to Antibody 184 and AW-F2 was converted to Antibody 207 by addition of a human heavy chain Fc region (SEQ ID NO: 8) and a constant kappa light chain region (SEQ ID NO: 9). IgG molecules were expressed by co-transfecting the heavy and light chain construct for each antibody into HEK 293E cultures. The expressed IgGs were purified by affinity chromatography and gel exclusion and the resulting monomeric molecules were tested for IL-12 and IL-23 binding by SPR (TABLE 6). All three IgG variants retained binding activity against both analytes with a visible improvement in kd compared to the parental wild-type IgG. Based on this, it is reasonable to expect that scFv variants described in TABLE 4 could be converted to the IgG format and retain improved binding characteristics against IL-12 and IL-23.
(§3) Using a SPR 3000, Protein A was immobilized onto FC1 and FC2 (or alternatively FC3 and FC4) of a CM5 research grade sensor chip using amine coupling, giving approximately […] RU. FC1 was used a blank throughout the experiments. The experiments were run in HBS-P buffer (SPR). At a flow rate of 20 μl/min, 20 μl of 5 μg/mL of antibody was passed over FC2. IL-12, IL-23 or IL-12p40 (Peprotech) were passed over the surface of FC1 and FC2 at concentrations ranging from 66 nM to 2 nM. Regeneration of the surface was performed using 10 mM Glycine, pH 1.0. The sensorgram data from FC2 was subtracted from FC1 and a buffer only control. The curves were fitted using a 1:1 Langmuir equation to generate the kd, ka and KD values. All curves were fitted with a χ² of less then 2.0 where possible.

Row | Binder | Kd | koff | kon
6 | B6 | 0.167 nM | 0.00063 s⁻¹ | 3.7e+06 M⁻¹ s⁻¹
7 | B7 | 0.127 nM | 0.00054 s⁻¹ | 4.2e+06 M⁻¹ s⁻¹

Each binder was assayed against T2, human IL-23 (assay: SPR, IgG).
Experimental: as §2, §3

Row | Binder | Kd | koff | kon
8 | B6 | 0.176 nM | 6.5e-05 s⁻¹ | 370000 M⁻¹ s⁻¹
9 | B7 | 0.104 nM | 4.2e-05 s⁻¹ | 410000 M⁻¹ s⁻¹

What follows are binders tested against T2, human IL-23 (assay: ELISA, coated IL-23).
How it was run: as §1

Row | Binder | binding result
10 | B8 | binds
11 | B9 | binds
12 | B10 | binds
13 | B11 | binds
14 | B12 | binds
15 | B13 | binds

Target: T1, human IL-12
Test: ELISA, coated IL-12
Remark: another data set of the same source
How it was run: as §1

Row | Binder | binding result
16 | B8 | binds
17 | B9 | binds
18 | B10 | binds
19 | B11 | binds
20 | B12 | binds
21 | B13 | binds

Target: T2, human IL-23
Test: ELISA, coated IL-23
Remark: another data set of the same source
How it was run: as §1

Row | Binder | binding result
22 | B14 | binds
23 | B15 | binds
24 | B16 | binds
25 | B17 | binds
26 | B18 | binds

Target: T1, human IL-12
Test: ELISA, coated IL-12
Remark: another data set of the same source
How it was run: as §1

Row | Binder | binding result
27 | B14 | binds
28 | B15 | binds
29 | B16 | binds
30 | B17 | binds
31 | B18 | binds

Target: T2, human IL-23
Test: ELISA, coated IL-23
Remark: another data set of the same source
How it was run: as §1

Row | Binder | binding result
32 | B1 | binds
33 | B2 | binds
34 | B3 | binds
35 | B4 | binds
36 | B5 | binds
